The labels stand for the following.
B1: Hsp70 C-terminal peptide GPTIEEVD (residues 634-641), biotin-SGSG at the N terminus [modified: biotin at the N terminus; biotin at the N terminus] [not stated] / Carboxy-terminus of Hsc70-interacting protein (CHIP), His-tagged, wild type … (parent complex)
chain 1: SGSGGPTIEEVD
chain 2: MKGKEEKEGGARLGAGGGSPEKSPSAQELKEQGNRLFVGRKYPEAAACYGRAITRNPLVAVYYTNRALCYLKMQQHEQALADCRRALELDGQSVKAHFFLGQCQLEMESYDEAIANLQRAYSLAKEQRLNFGDDIPSALRIAKKKRWNSIEERRIHQESELHSYLSRLIAAERERELEECQRNHEGDEDDSHVRAQQACIEAKHDKYMADMDELFSQVDEKRKKRDIPDYLCGKISFELMREPCITPSGITYDRKDIEEHLQRVGHFDPVTRSPLTQEQLIPNLAMKEVIDAFISENGWVEDY
B2: GST-IRF-1 (pDEST-15-codon optimized IRF-1) [not stated] / Carboxy-terminus of Hsc70-interacting protein (CHIP), His-tagged, wild type [human] (parent complex)
chain 1: MPITRMRMRPWLEMQINSNQIPGLIWINKEEMIFQIPWKHAAKHGWDINKDACLFRSWAIHTGRYKAGEKEPDPKTWKANFRCAMNSLPDIEEVKDQSRNKGSSAVRVYRMLPPLTKNQRKERKSKSSRDAKSKAKRKSCGDSSPDTFSDGLSSSTLPDDHSSYTVPGYMQDLEVEQALTPALSPCAVSSTLPDWHIPVEVVPDSTSDLYNFQVSPMPSTSEATTDEDEEGKLPEDIMKLLEQSEWQPTNVDGKGYLLNEPGVQPTSVYGDFSCKEEPEIDSPGGDIGLSLQRVFTDLKNMDATWLDSLLTPVRLPSIQAIPCAP
chain 2: B1 chain 2
B3: Carboxy-terminus of Hsc70-interacting protein (CHIP), His-tagged, wild type [human] / GST-IRF-1 (pDEST-15-codon optimized IRF-1) [not stated] (parent complex)
chain 1: B1 chain 2
chain 2: B2 chain 1
B4: Carboxy-terminus of Hsc70-interacting protein (CHIP), untagged, wild type [human] / His-tagged UbcH5a [not stated] (parent complex)
chain 1: B1 chain 2
chain 2: not shown

The variants in the first test derive from B1. The experiment in a line: microtitre-well binding assay (streptavidin-HRP detection); value read at the highest dose, 20 uM Hsp70 wt peptide; His-CHIP coated on wells, biotin peptide in the mobile phase; parent: 45; read off a plot.
Take chain 2 K30A: the response was about 7 RLU.

The variants in a further test derive from B2. Description: microtitre-well binding assay; lower panel; value read at the highest dose, about 130 ng GST-IRF-1; His-CHIP coated on wells, GST-IRF-1 in the mobile phase; parent: 120; read off a plot.
As for chain 2 K30A, the response is about 110 RLU.

In another test the parent is B3. Description: microtitre-well binding assay (luminometer, anti-CHIP antibody); upper panel; value read at the highest dose, about 130 ng CHIP; GST-IRF-1 immobilized, His-CHIP in the mobile phase; parent: 18; read off a plot.
Consider chain 1 K30A, for which the response was about 12 RLU.

Variants of B4 are the subject of a further test. Description: AlphaScreen; value read at the highest dose, 100 ng CHIP; untagged CHIP on protein A acceptor beads through anti-CHIP N-term pAb, His-UbcH5a on Nickel-chelate donor beads; parent: 2.3e+04; read off a plot. (In general: Alpha assays give light when donor and acceptor beads are brought close together.)
Take chain 1 K30A: the response was about 9000 AlphaScreen Units.

For the origin of these results see publication PMC4638040 (2015).
